From patent US20260116991A1 (HAINAN SIMCERE ZAIMING PHARMACEUTICAL, published 2026)
Where a chain is given by its changes, count along the chain named.

B1: hAb006LH1L1b (antibody, human IgG1, V domains shown)
VH: EVQLVQSGAEVKKPGSSVKVSCKASGYTFSDYEIHWVRQAPGQGLEWMGAIDPKTGNTAYNQKFMGRVTITADKSTSTAYMELSSLRSEDTAVYYCTRYFSFAYWGQGTLVTVSS
VL: DIVMTQTPLSLPVTPGEPASISCRSSQTFVHSNANTYLQWYLQKPGQSPQLLIYKVSNRFSGVPDRFSGSGSGTDFTLKISRVEAEDVGVYYCFQGSHVPYTFGQGTKLEIK
notes: Humanized F3.38.7; VH H1 + VL L1b; expressed as human IgG1
B2: hAb007LH1L1b (antibody, human IgG1, V domains shown)
VH: B1 VH with I34M, A50T, K54E, M65K, Y99P, F100Y, F102L, A103T
VL: B1 VL with T28S, A34R, N35D
notes: Humanized F3.81.19; VH H1 + VL L1b; expressed as human IgG1
B3: hAb007LH3L1b (antibody, human IgG1, V domains shown)
VH: B1 VH with S30T, I34M, A50T, K54E, M65K, I70L, Y99P, F100Y, F102L, A103T
VL: B1 VL with T28S, A34R, N35D
notes: Humanized F3.81.19; VH H3 + VL L1b; expressed as human IgG1
B4: hAb007LH1L1d (antibody, human IgG1, V domains shown)
VH: B1 VH with I34M, A50T, K54E, M65K, Y99P, F100Y, F102L, A103T
VL: B1 VL with T28S, A34S, N35D
notes: Humanized F3.81.19; VH H1 + VL L1d; expressed as human IgG1
B5: hAb006LH3L1c (antibody, human IgG1, V domains shown)
VH: B1 VH with S30T, I70L
VL: B1 VL with A34R
notes: Humanized F3.38.7; VH H3 + VL L1c; expressed as human IgG1
B6: hAb007LH2L1b (antibody, human IgG1, V domains shown)
VH: B1 VH with S30T, I34M, A50T, K54E, M65K, Y99P, F100Y, F102L, A103T
VL: B1 VL with T28S, A34R, N35D
notes: Humanized F3.81.19; VH H2 + VL L1b; expressed as human IgG1
B7: hAb007LH1L1e (antibody, human IgG1, V domains shown)
VH: B1 VH with I34M, A50T, K54E, M65K, Y99P, F100Y, F102L, A103T
VL: B1 VL with T28S, A34V, N35D
notes: Humanized F3.81.19; VH H1 + VL L1e; expressed as human IgG1
B8: hAb006LH2L1b (antibody, human IgG1, V domains shown)
VH: B1 VH with S30T
VL: B1 VL
notes: Humanized F3.38.7; VH H2 + VL L1b; expressed as human IgG1
B9: hAb006LH3L1 (antibody, human IgG1, V domains shown)
VH: B1 VH with S30T, I70L
VL: B1 VL with A34G
notes: Humanized F3.38.7; VH H3 + VL L1; expressed as human IgG1
B10: hAb007LH1L1c (antibody, human IgG1, V domains shown)
VH: B1 VH with I34M, A50T, K54E, M65K, Y99P, F100Y, F102L, A103T
VL: B1 VL with T28S, N35D
notes: Humanized F3.81.19; VH H1 + VL L1c; expressed as human IgG1
B11: hAb007LH3L1 (antibody, human IgG1, V domains shown)
VH: B1 VH with S30T, I34M, A50T, K54E, M65K, I70L, Y99P, F100Y, F102L, A103T
VL: B1 VL with T28S, A34G, N35D
notes: Humanized F3.81.19; VH H3 + VL L1; expressed as human IgG1
B12: hAb006LH3L1e (antibody, human IgG1, V domains shown)
VH: B1 VH with S30T, I70L
VL: B1 VL with A34V
notes: Humanized F3.38.7; VH H3 + VL L1e; expressed as human IgG1
B13: hAb006LH3L1d (antibody, human IgG1, V domains shown)
VH: B1 VH with S30T, I70L
VL: B1 VL with A34S
notes: Humanized F3.38.7; VH H3 + VL L1d; expressed as human IgG1
B14: hAb006LH2L1 (antibody, human IgG1, V domains shown)
VH: B1 VH with S30T
VL: B1 VL with A34G
notes: Humanized F3.38.7; VH H2 + VL L1; expressed as human IgG1
B15: hAb007LH1L1 (antibody, human IgG1, V domains shown)
VH: B1 VH with I34M, A50T, K54E, M65K, Y99P, F100Y, F102L, A103T
VL: B1 VL with T28S, A34G, N35D
notes: Humanized F3.81.19; VH H1 + VL L1; expressed as human IgG1
B16: hAb006LH3L1b (antibody, human IgG1, V domains shown)
VH: B1 VH with S30T, I70L
VL: B1 VL
notes: Humanized F3.38.7; VH H3 + VL L1b; expressed as human IgG1

Assays:
[1] = molecular target: T1, human GPC3 on CHO-K1-human GPC3 cells (CHOK1-hGPC3.2B5) (human, UniProt P51654 25-554); experiment: FACS, CHOK1-hGPC3.2B5 cells;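 further: flow cytometry of humanized antibodies binding to the cells over one hour in the cold, read as cell mean fluorescence intensity, with EC50 obtained by curve fitting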
T1 construct: whole, on cells

[2] = molecular target: biotinylated labeled human GPC3 protein (produced in-house) (human, UniProt P51654 25-559, limits assumed, biotinylated (Dojindo, Cat. No. LK03); sites not stated); experiment: ELISA, biotinylated human GPC3 protein

Binder	EC50 [1] [nM]	Max MFI [1] [MFI]	OD450 at 0.0008 nM [2] [OD450]	OD450 at 0.004 nM [2] [OD450]	OD450 at 0.02 nM [2] [OD450]	OD450 at 0.11 nM [2] [OD450]	OD450 at 0.53 nM [2] [OD450]	OD450 at 2.67 nM [2] [OD450]	OD450 at 13.33 nM [2] [OD450]	OD450 at 66.66 nM [2] [OD450]	OD450 at 0.0004 nM [2] [OD450]	OD450 at 0.002 nM [2] [OD450]	OD450 at 0.011 nM [2] [OD450]	OD450 at 0.056 nM [2] [OD450]	OD450 at 0.28 nM [2] [OD450]	OD450 at 1.39 nM [2] [OD450]	OD450 at 6.94 nM [2] [OD450]	OD450 at 34.72 nM [2] [OD450]
B1	1.1	4630	0.15	0.288	0.841	1.71	2.4	2.46	2.47	2.57								
B2	6.47	6070	0.099	0.137	0.341	1.07	1.98	2.34	2.38	2.46								
B3	7.33	6240	0.088	0.112	0.225	0.784	1.8	2.21	2.25	2.29								
B4	6.28	18200									0.059	0.057	0.101	0.16	0.503	1.1	1.34	1.31
B5	1.16	18000									0.071	0.102	0.265	0.756	1.3	1.46	1.44	1.36
B6	6.16	6040	0.099	0.133	0.297	0.924	1.84	2.2	2.33	2.25								
B7	10.4	15000									0.049	0.05	0.058	0.104	0.248	0.732	1.17	0.921
B8	1.14	4790	0.16	0.316	0.872	1.91	2.41	2.55	2.4	2.37								
B9	0.929	4920	0.154	0.287	0.819	1.65	2.06	2.2	2.25	2.33								
B10	4.61	18200									0.052	0.064	0.098	0.25	0.718	1.09	1.45	1.29
B11	6.98	6760	0.097	0.133	0.323	0.959	1.78	2.11	2.16	2.19								
B12	2.06	15800									0.06	0.085	0.187	0.592	1.23	1.36	1.44	1.32
B13	1.98	17600									0.058	0.096	0.228	0.59	1.11	1.61	1.33	1.45
B14	1.02	4880	0.192	0.629	1	1.83	2.36	2.4	2.29	2.28								
B15	2.02	6440	0.109	0.17	0.496	1.36	2.14	2.42	2.38	2.43								
B16	0.97	4670	0.155	0.309	0.878	1.93	2.36	2.42	2.36	2.5								
